In IntAct's records for PubMed 10318831:

B1: Semaphorin-4C (Mus musculus), Q64151 (parent)
chain: MAPHWAVWLLAAGLWGLGIGAEMWWNLVPRKTVSSGELVTVVRRFSQTGIQDFLTLTLTEHSGLLYVGAREALFAFSVEALELQGAISWEAPAEKKIECTQKGKSNQTECFNFIRFLQPYNSSHLYVCGTYAFQPKCTYINMLTFTLDRAEFEDGKGKCPYDPAKGHTGLLVDGELYSATLNNFLGTEPVILRYMGTHHSIKTEYLAFWLNEPHFVGSAFVPESVGSFTGDDDKIYFFFSERAVEYDCYSEQVVARVARVCKGDMGGARTLQKKWTTFLKARLVCSAPDWKVYFNQLKAVHTLRGASWHNTTFFGVFQARWGDMDLSAVCEYQLEQIQQVFEGPYKEYSEQAQKWARYTDPVPSPRPGSCINNWHRDNGYTSSLELPDNTLNFIKKHPLMEDQVKPRLGRPLLVKKNTNFTHVVADRVPGLDGATYTVLFIGTGDGWLLKAVSLGPWIHMVEELQVFDQEPVESLVLSQSKKVLFAGSRSQLVQLSLADCTKYRFCVDCVLARDPYCAWNVNTSRCVATTSGRSGSFLVQHVANLDTSKMCNQYGIKKVRSIPKNITVVSGTDLVLPCHLSSNLAHAHWTFGSQDLPAEQPGSFLYDTGLQALVVMAAQSRHSGPYRCYSEEQGTRLAAESYLVAVVAGSSVTLEARAPLENLGLVWLAVVALGAVCLVLLLLVLSLRRRLREELEKGAKASERTLVYPLELPKEPASPPFRPGPETDEKLWDPVGYYYSDGSLKIVPGHARCQPGGGPPSPPPGIPGQPLPSPTRLHLGGGRNSNANGYVRLQLGGEDRGGSGHPLPELADELRRKLQQRQPLPDSNPEESSV
partner: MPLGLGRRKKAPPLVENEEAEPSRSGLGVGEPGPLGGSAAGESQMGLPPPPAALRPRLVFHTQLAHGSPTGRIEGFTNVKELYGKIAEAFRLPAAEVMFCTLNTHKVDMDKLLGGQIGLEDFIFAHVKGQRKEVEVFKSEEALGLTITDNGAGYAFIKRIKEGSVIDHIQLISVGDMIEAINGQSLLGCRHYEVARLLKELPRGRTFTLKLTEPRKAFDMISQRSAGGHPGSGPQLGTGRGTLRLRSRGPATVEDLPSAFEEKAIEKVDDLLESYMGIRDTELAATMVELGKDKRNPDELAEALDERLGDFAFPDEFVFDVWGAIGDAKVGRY

Variants of: B1
Details: with gipc1_mouse Gipc1, Q9Z0G0

Row | Variant | effect of a mutation on the interaction
1 | S832A | disrupting interaction
2 | S832D | disrupting interaction
